Substitutions are numbered along the chain they refer to. Square brackets hold non-standard residues; d marks the D form. Ends that are not written are not given here. pT = C[C@@H](OP(=O)(O)O)[C@H](N)C(=O)O; pS = N[C@@H](COP(=O)(O)O)C(=O)O
Columns and labels:
[1] = molecular target: T1, APLF FHA domain (residues 1-106) (UniProt Q8IW19 1-106); assay: ITC; peptide injected (30 x 10 ul) into FHA domain in the cell; 22 °C; 50 mM HEPES pH 7.5, 150 mM NaCl, 5 mM β-mercaptoethanol; XRCC1 peptides 1 mM into 100 μM protein, XRCC4 peptides 300 μM into 30 μM protein; single-site binding model; conditions: both partners purified
T1 construct: Cloned BamHI/XhoI in pGEX-6P-1; also called aprataxin- and PNKP-like factor FHA domain; source: E. coli Rosetta2 (DE3), purified (glutathione resin, cleaved with rhinovirus 3C protease, Superdex 75); not shown: GST, N-terminal, cleaved
T1 sequence (looked up): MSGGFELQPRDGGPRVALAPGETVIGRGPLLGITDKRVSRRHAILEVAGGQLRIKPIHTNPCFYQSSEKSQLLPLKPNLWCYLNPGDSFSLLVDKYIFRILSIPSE

[2] = molecular target: T2, selenomethionine-labelled APLF FHA domain L91M (residues 1-106) (UniProt Q8IW19 1-106, L91 M, selenomethionine-labelled); assay: crystal structure; selenomethionine-labelled APLF FHA L91M with peptide at 1:3; hanging drops at 18 °C, 0.1 M Tris pH 8.0, 30% PEG 3350, 0.2 M MgCl2; SAD, refined at 1.4 Å; conditions: both partners purified
T2 construct: residues 1-104 are in the final model; also called APLF L91 M; APLF/XRCC4 SeMet; source: E. coli Rosetta2 (DE3) in SelenoMet medium, purified as the wild-type protein; not shown: GST, N-terminal, cleaved
T2 sequence (looked up): T1 sequence (looked up) with L91M

B1: XRCC1 515-529 peptide phosphorylated on Ser518 and Thr519 (peptide)
peptide: YAGSTDENTDSEEHQ
HELM: PEPTIDE1{Y.A.G.[O=C([C@H](COP(=O)(O)O)N[*:1])[*:2]].[C[C@@H](OP(=O)(O)O)[C@H](N[*:1])C(=O)[*:2]].D.E.N.T.D.S.E.E.H.Q.[am]}$$$$V2.0; N-terminus assumed
SMILES: C[C@H](NC(=O)[C@@H](N)Cc1ccc(O)cc1)C(=O)NCC(=O)N[C@@H](COP(=O)(O)O)C(=O)N[C@H](C(=O)N[C@@H](CC(=O)O)C(=O)N[C@@H](CCC(=O)O)C(=O)N[C@@H](CC(N)=O)C(=O)N[C@H](C(=O)N[C@@H](CC(=O)O)C(=O)N[C@@H](CO)C(=O)N[C@@H](CCC(=O)O)C(=O)N[C@@H](CCC(=O)O)C(=O)N[C@@H](Cc1c[nH]cn1)C(=O)N[C@@H](CCC(N)=O)C(N)=O)[C@@H](C)O)[C@@H](C)OP(=O)(O)O
notes: XRCC1 residues 515-529; also called di-phosphorylated XRCC1 peptide; source: synthetic peptide (Dr. W. Mawby, University of Bristol), purified by HPLC
fold increase in binding over the mono-phosphorylated peptide [1]: ~3 fold

B2: XRCC1 515-529 peptide phosphorylated on Ser518, Thr519, Thr523 and Ser525 (peptide)
peptide: YAG[pS][pT]DEN[pT]D[pS]EEHQ-NH2
modifications: N-terminus assumed
SMILES: C[C@H](NC(=O)[C@@H](N)Cc1ccc(O)cc1)C(=O)NCC(=O)N[C@@H](COP(=O)(O)O)C(=O)N[C@H](C(=O)N[C@@H](CC(=O)O)C(=O)N[C@@H](CCC(=O)O)C(=O)N[C@@H](CC(N)=O)C(=O)N[C@H](C(=O)N[C@@H](CC(=O)O)C(=O)N[C@@H](COP(=O)(O)O)C(=O)N[C@@H](CCC(=O)O)C(=O)N[C@@H](CCC(=O)O)C(=O)N[C@@H](Cc1c[nH]cn1)C(=O)N[C@@H](CCC(N)=O)C(N)=O)[C@@H](C)OP(=O)(O)O)[C@@H](C)OP(=O)(O)O
notes: XRCC1 residues 515-529; also called tetra-phosphorylated XRCC1 peptide; source: synthetic peptide (Dr. W. Mawby, University of Bristol), purified by HPLC
stoichiometry N [1]: ~2 APLF FHA domains per peptide

B3: XRCC1 515-529 peptide phosphorylated on Ser518, Thr519 and Thr523 (peptide)
peptide: YAG[pS][pT]DEN[pT]DSEEHQ-NH2
modifications: N-terminus assumed
SMILES: C[C@H](NC(=O)[C@@H](N)Cc1ccc(O)cc1)C(=O)NCC(=O)N[C@@H](COP(=O)(O)O)C(=O)N[C@H](C(=O)N[C@@H](CC(=O)O)C(=O)N[C@@H](CCC(=O)O)C(=O)N[C@@H](CC(N)=O)C(=O)N[C@H](C(=O)N[C@@H](CC(=O)O)C(=O)N[C@@H](CO)C(=O)N[C@@H](CCC(=O)O)C(=O)N[C@@H](CCC(=O)O)C(=O)N[C@@H](Cc1c[nH]cn1)C(=O)N[C@@H](CCC(N)=O)C(N)=O)[C@@H](C)OP(=O)(O)O)[C@@H](C)OP(=O)(O)O
notes: XRCC1 residues 515-529; also called YAGpSpTDENpTDSEEHQ; tri-phosphorylated XRCC1 peptide; source: synthetic peptide (Dr. W. Mawby, University of Bristol), purified by HPLC
fold weaker binding than the triphosphorylated XRCC4 peptide [1]: 26 fold | stoichiometry N [1]: ~2 APLF FHA domains per peptide

B4: XRCC4 229-237 peptide phosphorylated on Ser232, Thr233 and Ser237 (peptide)
peptide: YDE[pS][pT]DEE[pS]-NH2
modifications: N-terminus assumed
SMILES: C[C@@H](OP(=O)(O)O)[C@H](NC(=O)[C@H](COP(=O)(O)O)NC(=O)[C@H](CCC(=O)O)NC(=O)[C@H](CC(=O)O)NC(=O)[C@@H](N)Cc1ccc(O)cc1)C(=O)N[C@@H](CC(=O)O)C(=O)N[C@@H](CCC(=O)O)C(=O)N[C@@H](CCC(=O)O)C(=O)N[C@@H](COP(=O)(O)O)C(N)=O
notes: also called tri-phosphorylated XRCC4 peptide; triphosphorylated XRCC4; source: synthetic peptide (Dr. W. Mawby, University of Bristol), purified by HPLC
binding result [2]: binds

B5: XRCC4 229-237 peptide phosphorylated on Thr233 (peptide)
peptide: YDESTDEES
HELM: PEPTIDE1{Y.D.E.S.[C[C@@H](OP(=O)(O)O)[C@H](N[*:1])C(=O)[*:2]].D.E.E.S.[am]}$$$$V2.0; N-terminus assumed
SMILES: C[C@@H](OP(=O)(O)O)[C@H](NC(=O)[C@H](CO)NC(=O)[C@H](CCC(=O)O)NC(=O)[C@H](CC(=O)O)NC(=O)[C@@H](N)Cc1ccc(O)cc1)C(=O)N[C@@H](CC(=O)O)C(=O)N[C@@H](CCC(=O)O)C(=O)N[C@@H](CCC(=O)O)C(=O)N[C@@H](CO)C(N)=O
notes: also called mono-phosphorylated (pT233) XRCC4; XRCC4 peptide phosphorylated solely on the threonine in the core motif; source: synthetic peptide (Dr. W. Mawby, University of Bristol), purified by HPLC
fold tighter binding than the XRCC1 pThr519 peptide [1]: ~8 fold
